Source: patent US20150104459A1 (published 2015)

Legend:
[1] = target: recombinant soluble homotrimeric HA, A/Anhui/1/05 (H5N1) (influenza A virus A/Anhui/1/2005 (H5N1)); assay: microarray, trimeric HA, transfection supernatant
[2] = target: recombinant soluble homotrimeric HA, A/chicken/Vietnam/NCVD-016/08 (H5N1) (influenza A virus …); assay: microarray, trimeric HA, transfection supernatant
[3] = target: recombinant soluble homotrimeric HA, A/Hong Kong/156/97 (H5N1) (influenza A virus A/Hong Kong/156/97 …); assay: microarray, trimeric HA, transfection supernatant
[4] = target: recombinant soluble homotrimeric HA, A/northern shoveler/California/HKWF115/2007 (H6N1) (influenza A virus A/northern …); assay: microarray, trimeric HA, transfection supernatant
[5] = target: recombinant soluble homotrimeric HA, A/Netherlands/219/03 (H7N7) (influenza A virus A/Netherlands/219/03 …); assay: microarray, trimeric HA, transfection supernatant
[6] = target: recombinant soluble homotrimeric HA, A/duck/Yangzhou/02/2005 (H8N4) (influenza A virus …); assay: microarray, trimeric HA, transfection supernatant
[7] = target: recombinant soluble homotrimeric HA of A/northern shoveler/California/HKWF115/2007 (H6N1) (Influenza A virus A/northern …); assay: HA microarray, BCC supernatant
[8] = target: recombinant soluble homotrimeric HA of A/duck/Yangzhou/02/2005 (H8N4) (Influenza A virus …); assay: HA microarray, BCC supernatant

| Binder | Trimeric HA Binding RLU [1] | Trimeric HA Binding RLU [2] | Trimeric HA Binding RLU [3] | Trimeric HA Binding RLU [4] | Trimeric HA Binding RLU [5] | Trimeric HA Binding RLU [6] | Trimeric HA Binding RLU [7] | Trimeric HA Binding RLU [8] |
| --- | --- | --- | --- | --- | --- | --- | --- | --- |
| TCN-556 (5089_K12) (antibody, V domains shown) VH: QVQLVQSGAEVKKPGASVKVSCKASGYTFIGYDMHWVRQAPGQGLEWMGWINAKRGGTNYAQKFQGRVTMTRDTSISTAYMELNSLRSDDTAVYYCARGVGSRTTIFGVLNPEFDYWGQGTLVTVSS VL: QSALTQPPSASGSPGQSVTISCTGSSSDVGGYDYVSWYQQHPGKAPKLLIYEVTKRPSGVPDRFSGSKSGNTASLTVSGLQAEDEADYYCSSYAGNYNHVFGPGTKVTVL [TCN-556 (5089_K12), listing 1 of 2 here] | 13800 RLU | 22700 RLU | 24600 RLU | 34800 RLU | 43600 RLU | 22400 RLU | – | – |
| TCN-556 (5089_K12) (antibody, V domains shown) VH: QVQLVQSGAEVKKPGASVKVSCKASGYTFIGYDMHWVRQAPGQGLEWMGWINAKRGGTNYAQKFQGRVTMTRDTSISTAYMELNSLRSDDTAVYYCARGVGSRTTIFGVLNPEFDYWGQGTLVTVSS VL: QSALTQPPSASGSPGQSVTISCTGSSSDVGGYDYVSWYQQHPGKAPKLLIYEVTKRPSGVPDRFSGSKSGNTASLTVSGLQAEDEADYYCSSYAGNYNHVFGPGTKVTVL [TCN-556 (5089_K12), listing 2 of 2 here] | – | – | – | – | – | – | 11900 RLU | 16900 RLU |
| TCN-560 (5084_P10) (antibody, V domains shown) VH: EVQLVESGGGLVQPGGSLRLSCAASGFIFRNYWMSWVRQAPGKGLEWVANIKQDGREKYYVDSLRGRVNISRDNAENSLYLHMNSLRVEDTAVYFCARARMVVVTGDGFDVWGHGTMVTVSS VL: DIQMTQSPSSLSASVGDRVTITCRASQNIKRYFNWYQQKPGKAPKLLIYAASNLENGVPSRFSGSGSGTDFTLTISSLQPEDFATYYCQQSFSKSWTFGQGTNVDIK [TCN-560 (5084_P10), listing 1 of 2 here] | 18600 RLU | 18200 RLU | 29300 RLU | 35900 RLU | 32100 RLU | 27900 RLU | – | – |
| TCN-560 (5084_P10) (antibody, V domains shown) VH: EVQLVESGGGLVQPGGSLRLSCAASGFIFRNYWMSWVRQAPGKGLEWVANIKQDGREKYYVDSLRGRVNISRDNAENSLYLHMNSLRVEDTAVYFCARARMVVVTGDGFDVWGHGTMVTVSS VL: DIQMTQSPSSLSASVGDRVTITCRASQNIKRYFNWYQQKPGKAPKLLIYAASNLENGVPSRFSGSGSGTDFTLTISSLQPEDFATYYCQQSFSKSWTFGQGTNVDIK [TCN-560 (5084_P10), listing 2 of 2 here] | – | – | – | – | – | – | 42300 RLU | 44700 RLU |
